Results reported in patent US12460006B2, “Antibodies against integrin alpha 11 beta 1” (Momenta Pharmaceuticals, Inc., priority 2019, dated 2025).

T1: α11β1 I Domain (Homo sapiens, UniProt Q9UKX5)
T1 sequence (Q9UKX5 164-345 limits assumed): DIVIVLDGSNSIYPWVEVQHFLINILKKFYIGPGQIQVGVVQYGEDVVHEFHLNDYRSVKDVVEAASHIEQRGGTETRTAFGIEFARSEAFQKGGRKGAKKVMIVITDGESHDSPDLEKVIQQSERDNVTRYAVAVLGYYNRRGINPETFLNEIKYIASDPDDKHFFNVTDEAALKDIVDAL


How the values were obtained:
[1] = tested on: CHO cell lines expressing α11; assay: Collagen gel contraction assay; assay type: cell-based, human; conditions: for Inhibition of CHO-K1 gel contraction: Yes/No; for inhibition of CHO-hu α11-mediated collagen gel contraction: vs untreated
Method: 24-well plates were blocked with 2% BSA in PBS overnight at 37° C. The following day, the plates were washed 3 times with PBS before being used in the assay. Human CHO cell lines expressing α11 were harvested and resuspended at 1.25×10^6 in ExpiCHO Expression Medium (Gibco™ Cat #A2910002). The collagen gel solution was prepared by diluting 3 mg/mL stock collagen type I (Gibco™ Collagen I Rat Protein, Tail Cat #A1048301) to 1 mg/mL in the media containing the CHO cells. Sodium hydroxide was added to the solution to neutralize the pH and 400 μL of the collagen solution was added to each well of the 24-well plates. For the wells where the antibodies were included in the collagen gel solution, CHO cells were prepared at 2.5×10^6 and the antibodies were prepared at 2× final concentration in ExpiCHO media. The cells and antibodies were then combined 1:1 before the addition of the stock collagen type 1. The gels were allowed to polymerize for 60 minutes at 37° C. Antibodies were added to the ExpiCHO media, which was then layered on top of the polymerized gel (400 μL/well). The gels were incubated for 6 days at 37° C. before gel contraction was quantified. Images of each well were analyzed using Image J and gel contraction was determined as a percentage of the initial gel area.
Selected exemplary antibodies were tested for the ability to inhibit cell-mediated 3D gel contraction because this ability is directly linked to the functionality of the exemplary antibodies.

α11β1 Headpiece = assay: SPR binding to α11β1 Headpiece; set-up: species or system human; conditions: SPR data
Method: (§1) The affinity of antibodies for human α11β1 was measured by surface plasmon resonance assay (SPR). Affinity was measured at pH 7.6 and 25° C. with a Biacore T200 instrument. Anti-HIS antibody was immobilized on the SPR sensor surface using EDC/NHS covalent attachment. HIS-tagged human α11β1 was captured on the sensor surface and a single-cycle kinetics assay was used. Increasing concentrations of test antibody were injected in series over the sensor-bound α11β1. Dissociation was monitored for 1000 seconds. A sensor surface with only anti-HIS antibody and a series of blank injections were used to double-reference subtract the data. A 1:1 Langmuir model was fit to the data to estimate the kinetic association and dissociation constants. The affinity (equilibrium dissociation constant) of the interaction was calculated by dividing the kinetic dissociation constant by the kinetic association constant. Between injection cycles α11β1 and bound antibody were removed with an injection of 10 mM glycine at pH 1.5.
(§2) The binding affinity of antibodies for the α11β1 Headpiece and α11β1 I Domain as measured by SPR is shown in FIG. 10A and FIG. 10B, respectively.

α11β1 I Domain = target: T1, α11β1 I Domain; assay: SPR binding to α11β1 I Domain; conditions: SPR data
Method: as §1, §2

A549 cells = assay: Tumor xenograft model; assay type: in vivo, C.B-17 SCID mice; conditions: for Days to Volume Doubling (ave, 95% CI): intraperitoneal every 3 days, 7 doses; for inhibition of tumor growth compared to isotype control: A549 xenograft, SCID mice
Method: Fifty-six female C.B-17 SCID mice were inoculated with A549 cells (5×10^6 cells/mouse) subcutaneously in the flank. Once tumor volume reached ˜100 mm^3, animals were randomized amongst 7 groups of 8 mice each. Mice were then treated intraperitonealy every 3 days for a total of 7 doses with isotype controls or novel mAbs 79E3E3, 16E10 and 9G04 (2 and 20 mg/kg) or with docetaxel at 10 mg/kg every 4 days for a total of 6 doses. Tumor volumes and body weights were recorded twice a week with a gap of 2-3 days in between two measurements until any of the following conditions defined were observed: loss of 20% or more body weight; tumors that inhibit normal physiological function such as eating, drinking, and mobility; ulcerated tumors; tumor size greater than 2000 mm^3 and clinical observations of prostration, paralysis, seizures and hemorrhages.
In this example, studies were performed to determine if inhibition of α11β1 function with mAb results in xenograft growth inhibition. As shown in FIG. 16 and Table 4, blocking α11β1 on mouse CAFs impeded xenograft growth in SCID mice.

binding to the headpiece domain of α11β1 (α11β1 Headpiece)	binding to the I domain of α11β1 (α11β1 I Domain)	Molecule	Inhibition of CHO-K1 gel contraction [1]	inhibition of CHO-hu α11-mediated collagen gel contraction [1]	Days to Volume Doubling (ave, 95% CI) (A549 cells; 2mpk)	Days to Volume Doubling (ave, 95% CI) (A549 cells; 20mpk)	inhibition of tumor growth compared to isotype control (A549 cells)
		8-I14: mouse anti-α11β1 mAb; VH SEQ ID NO: 109, VL SEQ ID NO: 110 (antibody, V domains shown) VH: EVQLQQSGPELVKPGASVKKSCKASGYTFTDYYMHWVKQKPGQGLEWIGKIYPGSGNTHYNEKFKGKATLTADKSSSTAYMQLSSLTSEDSAVYFCATNYYGYRAMNYWGQGSSVTVSS VL: DIHLTQSPSSLSASLGERISLTCRASQDIYISLNWFQQKPDGTIKLLIYGTSSLDSGVPKRFSGSRSGSDYSLTISSLESEDFADYYCLQYASSPYTFGGGTKLEIK	No	inhibited CHO-hu α11-mediated collagen gel contraction			
		9-E16: mouse anti-α11β1 mAb; VH SEQ ID NO: 111, VL SEQ ID NO: 112 (antibody, V domains shown) VH: EVQLQQSGPELVKPGASVKISCKASGYTFTDYYMHWVKQKPGQGLEWIGEIYPGSGNPYYNEKFKGKATLTADKSSSSAYMQLSSLTSEDSAVYFCARTSYGRVGTGFAYWGQGTLVTVSA VL: NFVMTQTPLSLPVSLGDQASISCRSSQSLLHSNGNTYLHWYLQKPGQSPKLLIYKVSNRFSGVPDRFSGSGSGTDFTLKINRVETEDLGIYFCSQSSHVPTFGAGTKLELK		inhibited CHO-hu α11-mediated collagen gel contraction			
		24E4G6: rat anti-α11β1 mAb; VH SEQ ID NO: 147, VL SEQ ID NO: 148 (antibody, V domains shown) VH: MELELSLIFIFSLLKDVQCEVQLVESGGSLVQPGGSLKLSCVASGYTFSNYWMDWVRQSPGKSLEWIGEINTDGRRTNYAPSIKDRFTISRDNAKSTLYLQMSNVKSDDTAIYYCTILRVYPHYFDYWGQGVMVTVSS VL: MMSPAQFLFLLMLWIQEARGDVVMTQTPPSLSVAIGQSVSISCKSSQSLVYSDGETYLHWFLQSPGRSPKRLIYHVSNLGSGVPDRFSGTGSLTDFTLRISRVEAEDLGVYYCAQTTHFPPTFGAGTKLELK	Yes				
do not bind	do not bind	16E10: rabbit anti-α11β1 mAb; heavy chain SEQ ID NO: 161, light chain SEQ ID NO: 162 (antibody) heavy: METGLRWLLLVAVLKGVQCQSLEESGGDLVKPGASLTLTCRVSGFSFSSSYYMCWVRQAPGKGLEWIACIGTTRGSTYYATWAKGRFTISKISSTTVTLQMTSLTDADTATYFCARDATGYRINTIGLYFNLWGPGTLVTVSSGQPKAPSVFPLAPCCGDTPSSTVTLGCLVKGYLPEPVTVTWNSGTLTNGVRTFPSVRQSSGLYSLSSVVSVTSSSQPVTCNVAHPATNTKVDKTVAPSTCSKPMCPPPELPGGPSVFIFPPKPKDTLMISRTPEVTCVVVDVSQDDPEVQFTWYINNEQVRTARPPLREQQFNSTIRVVSTLPIAHQDWLRGKEFKCKVHNKALPAPIEKTISKARGQPLEPKVYTMGPPREELSSRSVSLTCMINGFYPSDISVEWEKNGKAEDNYKTTPTVLDSDGSYFLYSKLSVPTSEWQRGDVFTCSVMHEALHNHYTQKSISRSPGK light: MDTRAPTQLLGLLLLWLPGARCAFELTQTPSSVEAAVGGTPTIKCQASQTIYSYLSWYQQKPGQPPKLLIYEASKLASGVPSRFSGSGSGTDYTLTISDLECADAATYYCQSYHGTASTEYNTFGGGTEVVVRGDPVAPTVLIFPPAADQVATGTVTIVCVANKYFPDVTVTWEVDGTTQTTGIENSKTPQNSADCTYNLSSTLTLTSTQYNSHKEYTCKVTQGTTSVVQSFNRGDC	Yes	inhibited CHO-hu α11-mediated collagen gel contraction	7.9 (7.5, 8.3) Days	7.9 (7.5, 8.3) Days	no significant inhibition of tumor growth
		9-B11: mouse anti-α11β1 mAb; VH SEQ ID NO: 115, VL SEQ ID NO: 116 (antibody, V domains shown) VH: QVQLQQPGAELVRPGTSVKLSCKASGYTFTSYWMHWVQQRPGQGLEWIGVIDPSDSYTNYNQKFKGKATLTVDTSSSSAYMQLSSLTSEDSAVYYCARDDVAMDYWGQGTSVTVSS VL: DIVVTQSPASLAVSLGQRATISCRASESVDSYGNSFIHWYQQKPGQPPKLLIYRASNLKSGIPARFSGSGSRTDFTLTINPVEADDVATYYCQQSNEDPYTFGGGTKLEIK	No				
	do bind	79E3E3: rat anti-α11β1 mAb; VH SEQ ID NO: 145, VL SEQ ID NO: 146 (antibody, V domains shown) VH: MDWLWNLLFLMVVAQSAQAQIQLVQSGPEVKKPGESVKISCKASGYTFTDYAMNWVKQAPGNGLKWMGWINTQTGKPTYADDFKQRFVFSLETSARTTYLQINNLNIEDTATYFCTRLGTGNTKGFAYWGQGTLVTVSS VL: MESQTHVLISLLLCVSGTCGDILINQSPASLTVSAGERVTMSCKSSQSLLYSENNQDYLAWYQQKPGQFPKLLIYGASNRHTGVPDRFTGSGSGTDFTLTISSVQAEDLADYYCEQTYRYPFTFGSGTKLEIK	Yes	inhibited CHO-hu α11-mediated collagen gel contraction	8.5 (8.0, 9.0) Days	8.5 (8.0, 9.0) Days	significantly inhibited tumor growth
		16G7: rabbit anti-α11β1 mAb; heavy chain SEQ ID NO: 159, light chain SEQ ID NO: 160 (antibody) heavy: METGLRWLLLVAVFKGVQCQEQLVESGGDLVKPGASLTLTCTASGFSFNKNYWMCWVRQAPGKGLEWIGCIYNGDGNTYYASWVNGRFTISKTSSTTVTLQMTSLTVADTAIYFCARLLNMWGPGTLVTVSSGQPKAPSVFPLAPCCGDTPSSTVTLGCLVKGYLPEPVTVTWNSGTLTNGVRTFPSVRQSSGLYSLSSVVSVTSSSQPVTCNVAHPATNTKVDKTVAPSTCSKPMCPPPELPGGPSVFIFPPKPKDTLMISRTPEVTCVVVDVSQDDPEVQFTWYINNEQVRTARPPLREQQFNSTIRVVSTLPIAHQDWLRGKEFKCKVHNKALPAPIEKTISKARGQPLEPKVYTMGPPREELSSRSVSLTCMINGFYPSDISVEWEKNGKAEDNYKTTPTVLDSDGSYFLYSKLSVPTSEWQRGDVFTCSVMHEALHNHYTQKSISRSPGK light: MDTRAPTQLLGLLLLWLPGARCADIVMTQTPASVEAAVGGTVTIKCQASESIGNALAWYQQKPGQPPKLLIYTAATLASGVPSRFSGSGSGTEFTLTISGVQCDDAATYYCQSYYFTSVSSYGNAFGGGTEVVVKGDPVAPTVLIFPPAADQVATGTVTIVCVANKYFPDVTVTWEVDGTTQTTGIENSKTPQNSADCTYNLSSTLTLTSTQYNSHKEYTCKVTQGTTSVVQSFNRGDC	No				
	do bind	9-G05: mouse anti-α11β1 mAb; VH SEQ ID NO: 103, VL SEQ ID NO: 104 (antibody, V domains shown) VH: EVQLQQSGPELVKPGASVKIPCKASGYTFPDYNMDWVKQSHGKSLEWIGYINPDNGGTIYNQKFKGKATLTVDKSSSTAYMELRSLTSEDTAVYYCARLDSSGYGYYAMDYWGQGTSVTVSS VL: DIVLTQSPASLAVSLGQRATISCRASESVDNYGISFMHWYQQKPGQPPKLLIYRASNLDSEIPARFSGSGSRTDFTLTIDPVETDDVATYYCQQSYKDPRTFGGGTKLEIK	Yes	inhibited CHO-hu α11-mediated collagen gel contraction			
